Laboratory results taken from patent US20190367620A1 (Merck KGaA, published 2019).

How the values were obtained:
Experiment in all cases: SPR as in Example 1.8
[1] = molecular target: T1, FGFR1 D2 point mutant D88A (human, UniProt P11362 22-254)
T1 chain: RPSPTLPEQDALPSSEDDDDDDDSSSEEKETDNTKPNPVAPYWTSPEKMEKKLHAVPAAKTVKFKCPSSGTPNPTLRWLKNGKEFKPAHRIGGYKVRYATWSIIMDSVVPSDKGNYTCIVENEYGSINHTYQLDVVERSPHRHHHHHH
Method: (§1) Binding affinities of anti-FGFR1 antibodies to FGFR1 were measured by Surface Plasmon Resonance (SPR) using a GE Healthcare BIAcore 4000 instrument as follows. Goat anti-human Fc antibody (Jackson ImmunoResearch Laboratories #109-005-098) was first immobilized on BIAcore carboxymethylated dextran CM5 chip using direct coupling to free amino groups following the procedure described by the manufacturer. Antibodies were then captured on the CM5 biosensor chip to achieve approximately 200 response units (RU). Binding measurements were performed using the running HBS-EP+ buffer. A 2-fold dilution series of His-tagged FGFR1 proteins were injected at a flow rate of 30 μl/min at 25° C. Association rates (kₒₙ, per mol/s) and dissociation rates (koff, per s) were calculated using a simple 1:1 Langmuir binding model (Biacore 4000 Evaluation Software). The equilibrium dissociation constant (KD, mol) was calculated as the ratio of koff/kₒₙ.
(§2) To obtain a finer, residue-level mapping of the epitope and to complement the HD exchange data, molecular modelling and manual inspection of the crystal structure of FGFR1 [(Beenken et al. 2012); PDB record 3OJV] was used to select solvent exposed residues within and around the epitope identified by HD exchange. The selected residues were mutated either to alanine (large to small) or to glycine if the selected residue was alanine. In total 35 point mutants were designed, expressed and purified in HEK cells, and tested for binding to mAb #A08 using surface plasmon resonance as described in Example 1.8. The affinity of the antibody for wild-type and each mutant was determined and used to calculate the contribution of each epitope residue to the binding energy.

[2] = molecular target: T2, FGFR1 D2 point mutant S45A (human, UniProt P11362 22-254)
T2 chain: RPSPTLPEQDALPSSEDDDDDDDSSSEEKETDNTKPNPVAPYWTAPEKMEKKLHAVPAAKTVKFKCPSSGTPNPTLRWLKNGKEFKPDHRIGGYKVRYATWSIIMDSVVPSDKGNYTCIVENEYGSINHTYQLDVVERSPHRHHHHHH
Method: as §1, §2

[3] = molecular target: T3, FGFR1 D2 point mutant G92A (human, UniProt P11362 22-254)
T3 chain: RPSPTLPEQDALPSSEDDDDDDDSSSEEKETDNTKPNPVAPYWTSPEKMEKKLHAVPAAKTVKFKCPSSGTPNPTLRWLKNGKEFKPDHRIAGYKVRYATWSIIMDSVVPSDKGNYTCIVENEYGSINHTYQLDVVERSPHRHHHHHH
Method: as §1, §2

[4] = molecular target: T4, human FGFR1b-IIIc extracellular domain with a HIS tag (human, UniProt P11362 22-376)
T4 construct: also called huFGFR1b-IIIc; hFGFR1b-IIIc
T4 sequence: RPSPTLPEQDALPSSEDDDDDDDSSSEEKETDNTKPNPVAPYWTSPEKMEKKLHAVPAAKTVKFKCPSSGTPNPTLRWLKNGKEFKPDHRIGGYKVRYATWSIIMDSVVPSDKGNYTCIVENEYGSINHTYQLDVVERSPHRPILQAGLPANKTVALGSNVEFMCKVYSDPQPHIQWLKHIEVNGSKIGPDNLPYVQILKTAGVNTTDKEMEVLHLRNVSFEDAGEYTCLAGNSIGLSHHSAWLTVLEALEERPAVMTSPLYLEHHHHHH
Method: as §1, §2

[5] = molecular target: T5, FGFR1 D2 point mutant S102A (human, UniProt P11362 22-254)
T5 chain: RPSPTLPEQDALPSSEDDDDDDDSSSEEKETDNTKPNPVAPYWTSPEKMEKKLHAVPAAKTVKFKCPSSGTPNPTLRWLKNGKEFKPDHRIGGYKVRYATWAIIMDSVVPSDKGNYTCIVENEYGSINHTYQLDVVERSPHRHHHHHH
Method: as §1, §2

[6] = molecular target: T6, FGFR1 D2 point mutant I104A (human, UniProt P11362 22-254)
T6 chain: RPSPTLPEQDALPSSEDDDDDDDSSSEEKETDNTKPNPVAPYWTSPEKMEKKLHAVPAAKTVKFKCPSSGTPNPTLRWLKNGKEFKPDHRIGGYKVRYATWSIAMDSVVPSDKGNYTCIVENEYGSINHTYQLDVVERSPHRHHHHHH
Method: as §1, §2

[7] = molecular target: T7, FGFR1 D2 point mutant P57A (human, UniProt P11362 22-254)
T7 chain: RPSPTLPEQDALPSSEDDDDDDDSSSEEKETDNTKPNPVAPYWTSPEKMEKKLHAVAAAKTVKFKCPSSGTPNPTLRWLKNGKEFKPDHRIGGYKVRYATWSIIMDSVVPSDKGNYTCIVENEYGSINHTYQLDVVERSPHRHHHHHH
Method: as §1, §2

[8] = molecular target: T8, FGFR1 D2 point mutant H54A (human, UniProt P11362 22-254)
T8 chain: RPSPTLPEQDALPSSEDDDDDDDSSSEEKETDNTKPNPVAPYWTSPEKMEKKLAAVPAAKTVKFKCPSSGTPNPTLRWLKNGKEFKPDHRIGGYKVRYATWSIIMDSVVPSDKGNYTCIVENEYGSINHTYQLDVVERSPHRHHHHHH
Method: as §1, §2

[9] = molecular target: T9, FGFR1 D2 point mutant A55G (human, UniProt P11362 22-254)
T9 chain: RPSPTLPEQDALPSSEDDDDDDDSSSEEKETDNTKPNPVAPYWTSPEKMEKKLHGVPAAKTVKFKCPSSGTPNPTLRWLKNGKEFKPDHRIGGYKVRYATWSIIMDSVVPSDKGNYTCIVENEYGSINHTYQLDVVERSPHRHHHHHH
Method: as §1, §2

[10] = molecular target: T10, FGFR1 D2 point mutant K52A (human, UniProt P11362 22-254)
T10 chain: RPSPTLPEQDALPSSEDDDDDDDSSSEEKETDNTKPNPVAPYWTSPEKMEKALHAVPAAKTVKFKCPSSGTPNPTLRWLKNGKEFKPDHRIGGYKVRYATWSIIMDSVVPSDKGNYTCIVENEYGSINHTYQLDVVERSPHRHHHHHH
Method: as §1, §2

Kd [1]: 160 pM
Kd [2]: 210 pM
Kd [3]: 280 pM
Kd [4]: 480 pM
Kd [5]: 160 pM
Kd [6]: 930 pM
Kd [7]: 410 pM
Kd [8]: 360 pM
Kd [9]: 220 pM
Kd [10]: 230 pM
B1: mAb #A08 (antibody, V domains shown)
VH: EVQLQESGPGLVKPSGTLSLTCAVSGGSISSNNWWSWVRQPPGKGLEWIGEIYHSGSTSYNPSLKSRVTISVDKSKNQFSLKLNSVTAADTAVYYCARGTDWFDPWGQGTLVTVSS
VL: QAVLTQPPSVSVAPGQTARITCGGNNIGSESVHWYQQKPGQAPVLVVYDDSDRPSGIPERFSGSNSGNTATLTISRVEAGDEADYYCQVWDSTSDHRVFGGGTKLTVL
notes: Only variable domains are tied to the name mAb #A08 (hit); also called #A08 hit; mAb #08
